Measured values reported in publication PMC9388682, “Structural basis for cannabinoid-induced potentiation of alpha1-glycine receptors in lipid nanodiscs” (Nature Communications, 2022).

Target: the molecule itself
Assay: cryo-EM structure; purified GlyR in asolectin nanodiscs (MSP1E3D1), buffer A (200 mM NaCl, 20 mM HEPES pH 8.0); with or without 32 μM THC and 0, 0.1 or 1 mM glycine; Titan Krios 300 keV, RELION; homopentamer

B1: zebrafish glycine receptor alpha1 (GlyRα1), full-length, homopentamer in asolectin nanodiscs (receptor, UniProt O93430 25-444, looked up)
chain: ARKAASPMPPSEFLDKLMGKVSGYDARIRPNFKGPPVNVTCNIFINSFGSIAETTMDYRVNIFLRQQWNDPRLAYSEYPDDSLDLDPSMLDSIWKPDLFFANEKGANFHEVTTDNKLLRISKNGNVLYSIRITLVLACPMDLKNFPMDVQTCIMQLESFGYTMNDLIFEWDEKGAVQVADGLTLPQFILKEEKDLRYCTKHYNTGKFTCIEARFHLERQMGYYLIQMYIPSLLIVILSWVSFWINMDAAPARVGLGITTVLTMTTQSSGSRASLPKVSYVKAIDIWMAVCLLFVFSALLEYAAVNFIARQHKELLRFQRRRRHLKEDEAGDGRFSFAAYGMGPACLQAKDGMAIKGNNNNAPTSTNPPEKTVEEMRKLFISRAKRIDTVSRVAFPLVFLIFNIFYWITYKIIRSEDIHKQ
modifications: N-glycans at Asn62
notes: glycine receptor subunit alpha-1, zebrafish, codon-optimized full-length gene (NCBI NP_571477); residues of the models numbered as in UniProt O93430; Phe341-Lys394 (M3-M4 loop, ICD) not modelled in the structures; also called zebrafish homomeric GlyRα1; glycine α1 receptor
stoichiometry N: 5
